According to IntAct's records for PubMed 19446522:

B1: "Na(+)/H(+) exchange regulatory cofactor NHE-RF1" (Homo sapiens), O14745 (parent)
chain: MSADAAAGAPLPRLCCLEKGPNGYGFHLHGEKGKLGQYIRLVEPGSPAEKAGLLAGDRLVEVNGENVEKETHQQVVSRIRAALNAVRLLVVDPETDEQLQKLGVQVREELLRAQEAPGQAEPPAAAEVQGAGNENEPREADKSHPEQRELRPRLCTMKKGPSGYGFNLHSDKSKPGQFIRSVDPDSPAEASGLRAQDRIVEVNGVCMEGKQHGDVVSAIRAGGDETKLLVVDRETDEFFKKCRVIPSQEHLNGPLPVPFTNGEIQKENSREALAEAALESPRPALVRSASSDTSEELNSQDSPPKQDSTAPSSTSSSDPILDFNISLAMAKERAHQKRSSKRAPQMDWSKKNELFSNL

Variants of: B1
Settings: with CFTR

| effect of a mutation on the interaction | Variant |
| --- | --- |
| decreasing interaction | E353A |
